Test results reported in patent publication US20140206608A1 (priority 2012, published 2014).
Like-named read-outs stand apart in the source and are kept apart here. *1 amine or outer side, *2 acyl side, *3 side chain or, on linkers, in order; H or OH if unused. Where no end group is shown, it is not given here. Side-chain parts run from the residue outwards. [ ]: non-standard residue; d: D form. The star is where a group is joined. γGlu = O=C(O)[C@H](CCC(=O)[*:2])N[*:1]; Palmitoyl = CCCCCCCCCCCCCCCC(=O)*; x70 = not defined here; Aib = CC(C)(N)C(=O)O

B1: SEQ ID NO: 13 (peptide)
peptide: Y[Aib]EGTFTSDLSIQK([γGlu-x70])EKEAVRLFIEWLKAGGPSSGAPPPS-NH2
modifications: reading uncertain
B2: SEQ ID NO: 10 (peptide)
peptide: Y[Aib]EGTFTSDLSIQK([γGlu-x70])EEEAVRLFIEWLKAGGPSSGAPPPS-NH2
modifications: reading uncertain
B3: SEQ ID NO: 9 (peptide)
peptide: Y[Aib]EGTFTSDLSIQK([γGlu-x70])EEEAVRLFIEWLK[Aib]GGPSSGAPPPS-NH2
modifications: reading uncertain
B4: SEQ ID NO: 12 (peptide)
peptide: Y[Aib]EGTFTSDLSIQK([γGlu-x70])EEEAVRLFIEWLK[Aib]GGPSSGAPPPS-NH2
modifications: reading uncertain
B5: SEQ ID NO: 11 (peptide)
peptide: Y[Aib]EGTFTSDLSIQK([γGlu-Palmitoyl])EEEAVRLFIEWLKAGGPSSGAPPPS-NH2
modifications: N-terminus assumed
SMILES: CCCCCCCCCCCCCCCC(=O)N[C@@H](CCC(=O)NCCCC[C@H](NC(=O)[C@H](CCC(N)=O)NC(=O)[C@@H](NC(=O)[C@H](CO)NC(=O)[C@H](CC(C)C)NC(=O)[C@H](CC(=O)O)NC(=O)[C@H](CO)NC(=O)[C@@H](NC(=O)[C@H](Cc1ccccc1)NC(=O)[C@@H](NC(=O)CNC(=O)[C@H](CCC(=O)O)NC(=O)C(C)(C)NC(=O)[C@@H](N)Cc1ccc(O)cc1)[C@@H](C)O)[C@@H](C)O)[C@@H](C)CC)C(=O)N[C@@H](CCC(=O)O)C(=O)N[C@@H](CCC(=O)O)C(=O)N[C@@H](CCC(=O)O)C(=O)N[C@@H](C)C(=O)N[C@H](C(=O)N[C@@H](CCCNC(=N)N)C(=O)N[C@@H](CC(C)C)C(=O)N[C@@H](Cc1ccccc1)C(=O)N[C@H](C(=O)N[C@@H](CCC(=O)O)C(=O)N[C@@H](Cc1c[nH]c2ccccc12)C(=O)N[C@@H](CC(C)C)C(=O)N[C@@H](CCCCN)C(=O)N[C@@H](C)C(=O)NCC(=O)NCC(=O)N1CCC[C@H]1C(=O)N[C@@H](CO)C(=O)N[C@@H](CO)C(=O)NCC(=O)N[C@@H](C)C(=O)N1CCC[C@H]1C(=O)N1CCC[C@H]1C(=O)N1CCC[C@H]1C(=O)N[C@@H](CO)C(N)=O)[C@@H](C)CC)C(C)C)C(=O)O

Experiments:
[1] = target: T1, human GLP-1 receptor (hGLP-1 R) (Homo sapiens, UniProt P43220); assay: cAMP response of HEK-293 cells stably expressing human GLP-1 receptor (HTRF); type: cell-based; conditions: cAMP formation
T1 construct: expressed in transfected cells; host or cells: HEK-293
Protocol: (§1) cAMP content of cells was determined using a kit from Cisbio Corp. (cat. no. 62AM4PEC) based on HTRF (Homogenous Time Resolved Fluorescence). For preparation, cells were split into T175 culture flasks and grown overnight to near confluency in medium (DMEM/10% FBS). Medium was then removed and cells washed with PBS lacking calcium and magnesium, followed by proteinase treatment with accutase (Sigma-Aldrich cat. no. A6964). Detached cells were washed and resuspended in assay buffer (1×HBSS; 20 mM HEPES, 0.1% BSA, 2 mM IBMX) and cellular density determined. They were then diluted to 400000 cells/ml and 25 μl-aliquots dispensed into the wells of 96-well plates. For measurement, 25 μl of test compound in assay buffer was added to the wells, followed by incubation for 30 minutes at room temperature.

[2] = target: T2, human GIP receptor (hGIP R) (Homo sapiens, UniProt P48546); assay: cAMP response of HEK-293 cells stably expressing human GIP receptor (HTRF); type: cell-based
T2 construct: expressed in transfected cells; host or cells: HEK-293
T2 sequence (P48546 22-466): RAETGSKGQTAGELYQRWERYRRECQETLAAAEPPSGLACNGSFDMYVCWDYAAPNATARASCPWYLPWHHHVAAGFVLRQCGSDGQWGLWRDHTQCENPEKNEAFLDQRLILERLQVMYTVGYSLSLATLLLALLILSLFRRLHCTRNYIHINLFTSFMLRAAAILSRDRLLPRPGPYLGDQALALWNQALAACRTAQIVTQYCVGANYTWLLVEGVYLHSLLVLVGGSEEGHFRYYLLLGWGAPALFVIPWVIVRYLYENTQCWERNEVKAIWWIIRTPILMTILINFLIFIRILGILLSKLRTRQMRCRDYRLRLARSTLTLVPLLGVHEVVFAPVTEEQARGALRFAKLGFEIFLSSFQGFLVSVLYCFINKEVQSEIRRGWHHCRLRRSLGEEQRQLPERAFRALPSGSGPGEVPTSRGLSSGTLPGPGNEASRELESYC
Protocol: as §1

[3] = target: T3, human glucagon receptor (hGLUC R) (Homo sapiens, UniProt P47871); assay: cAMP response of HEK-293 cells stably expressing human glucagon receptor (HTRF); type: cell-based; conditions: EC50 hGLUC R, Table 7; cAMP formation
T3 construct: expressed in transfected cells; host or cells: HEK-293
Protocol: as §1

[4] = target: human GLP-1 receptor (human, UniProt P43220 24-463); assay: cell-based or functional assay
[5] = target: T4, human GIP receptor (human, UniProt P48546 22-466); assay: cell-based or functional assay
T4 sequence (looked up): T2 sequence (P48546 22-466)

[6] = target: human glucagon receptor (human, UniProt P47871 26-477); assay: cell-based or functional assay
human glucagon receptor, sequence (P47871 26-477): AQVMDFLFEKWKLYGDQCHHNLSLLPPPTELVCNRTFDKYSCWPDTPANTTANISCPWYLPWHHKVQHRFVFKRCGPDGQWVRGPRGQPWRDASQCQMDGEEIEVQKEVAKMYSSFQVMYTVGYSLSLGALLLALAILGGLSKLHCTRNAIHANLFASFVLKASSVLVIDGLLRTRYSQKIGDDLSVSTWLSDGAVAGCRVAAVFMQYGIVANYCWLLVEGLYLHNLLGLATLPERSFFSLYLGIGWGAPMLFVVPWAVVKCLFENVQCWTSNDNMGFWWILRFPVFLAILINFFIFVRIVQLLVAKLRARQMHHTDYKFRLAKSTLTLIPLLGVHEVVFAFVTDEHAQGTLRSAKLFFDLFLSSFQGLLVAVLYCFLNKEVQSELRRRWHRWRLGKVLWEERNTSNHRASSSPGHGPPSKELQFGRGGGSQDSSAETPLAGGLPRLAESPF

T1 sequence (P43220 24-463): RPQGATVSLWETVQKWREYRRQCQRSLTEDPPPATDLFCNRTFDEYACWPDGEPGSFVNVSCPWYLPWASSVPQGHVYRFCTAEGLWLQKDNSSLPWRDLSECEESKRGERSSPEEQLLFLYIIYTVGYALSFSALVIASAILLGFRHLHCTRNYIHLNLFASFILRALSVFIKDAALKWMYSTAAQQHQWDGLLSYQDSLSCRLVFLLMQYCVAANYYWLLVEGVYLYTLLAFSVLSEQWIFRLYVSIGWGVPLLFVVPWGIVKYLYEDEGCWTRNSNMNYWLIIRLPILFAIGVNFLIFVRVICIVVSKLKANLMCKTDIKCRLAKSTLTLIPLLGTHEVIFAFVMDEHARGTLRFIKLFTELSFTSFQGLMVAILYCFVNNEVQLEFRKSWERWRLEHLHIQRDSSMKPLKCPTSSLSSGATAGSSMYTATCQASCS
T3 sequence (P47871 26-477): as the sequence (P47871 26-477) above

| Molecule | EC50 hGLP-1 R [pM] (formed cAMP) [4] | EC50 hGIP R [pM] (formed cAMP) [5] | EC50 hGLUC R [pM] (formed cAMP) [6] | other results |
| --- | --- | --- | --- | --- |
| CCCCCCCCCCCCCCCC(=O)N[C@@H](CCC(=O)NCCCC[C@H](NC(=O)[C@H](CCC(N)=O)NC(=O)[C@@H](NC(=O)[C@H](CO)NC(=O)[C@H](CC(C)C)NC(=O)[C@H](CC(=O)O)NC(=O)[C@H](CO)NC(=O)[C@@H](NC(=O)[C@H](Cc1ccccc1)NC(=O)[C@@H](NC(=O)CNC(=O)[C@H](CCC(=O)O)NC(=O)C(C)(C)NC(=O)[C@@H](N)Cc1ccc(O)cc1)[C@@H](C)O)[C@@H](C)O)[C@@H](C)CC)C(=O)N[C@@H](CCC(=O)O)C(=O)N[C@@H](CCCCN)C(=O)N[C@@H](CCC(=O)O)C(=O)N[C@@H](C)C(=O)N[C@H](C(=O)N[C@@H](CCCNC(=N)N)C(=O)N[C@@H](CC(C)C)C(=O)N[C@@H](Cc1ccccc1)C(=O)N[C@H](C(=O)N[C@@H](CCC(=O)O)C(=O)N[C@@H](Cc1c[nH]c2ccccc12)C(=O)N[C@@H](CC(C)C)C(=O)N[C@@H](CCCCN)C(=O)N[C@@H](CC(N)=O)C(=O)NCC(=O)NCC(=O)N1CCC[C@H]1C(=O)N[C@@H](CO)C(=O)N[C@@H](CO)C(=O)NCC(=O)N[C@@H](C)C(=O)N1CCC[C@H]1C(=O)N1CCC[C@H]1C(=O)N1CCC[C@H]1C(=O)N[C@@H](CO)C(N)=O)[C@@H](C)CC)C(C)C)C(=O)O [SEQ ID NO: 8, Y-Aib-E-G-T-F-T-S-D-L-S-I-Q-K(γE-x53)-EKEAVRLFIEWLKNGGPSSGAPPPS-NH2] |  |  |  | EC50 ([1]; Table 7, read-out: EC50 hGLP-1 R): 0.0201 nM; EC50 ([2]; Table 7, cAMP formation, read-out: EC50 hGIP R): 0.0167 nM |
| CCCCCCCCCCCCCCCC(=O)N[C@@H](CCC(=O)NCCCC[C@H](NC(=O)[C@H](CCC(N)=O)NC(=O)[C@@H](NC(=O)[C@H](CO)NC(=O)[C@H](CC(C)C)NC(=O)[C@H](CC(=O)O)NC(=O)[C@H](CO)NC(=O)[C@@H](NC(=O)[C@H](Cc1ccccc1)NC(=O)[C@@H](NC(=O)CNC(=O)[C@H](CCC(=O)O)NC(=O)C(C)(C)NC(=O)[C@@H](N)Cc1ccc(O)cc1)[C@@H](C)O)[C@@H](C)O)[C@@H](C)CC)C(=O)N[C@@H](CCC(=O)O)C(=O)N[C@@H](CCC(=O)O)C(=O)N[C@@H](CCC(=O)O)C(=O)N[C@@H](C)C(=O)N[C@H](C(=O)N[C@@H](CCCNC(=N)N)C(=O)N[C@@H](CC(C)C)C(=O)N[C@@H](Cc1ccccc1)C(=O)N[C@H](C(=O)N[C@@H](CCC(=O)O)C(=O)N[C@@H](Cc1c[nH]c2ccccc12)C(=O)N[C@@H](CC(C)C)C(=O)N[C@@H](CCCCN)C(=O)N[C@@H](C)C(=O)NCC(=O)NCC(=O)N1CCC[C@H]1C(=O)N[C@@H](CO)C(=O)N[C@@H](CO)C(=O)NCC(=O)N[C@@H](C)C(=O)N1CCC[C@H]1C(=O)N1CCC[C@H]1C(=O)N1CCC[C@H]1C(=O)N[C@@H](CO)C(N)=O)[C@@H](C)CC)C(C)C)C(=O)O [SEQ ID NO: 11, Y-Aib-E-G-T-F-T-S-D-L-S-I-Q-K(γE-x53)-EEEAVRLFIEWLKAGGPSSGAPPPS-NH2] |  |  |  | EC50 [2]: 0.0057 nM |
| CCCCCCCCCCCCCCCCCC(=O)N[C@@H](CCC(=O)NCCCC[C@H](NC(=O)[C@H](CCC(N)=O)NC(=O)[C@@H](NC(=O)[C@H](CO)NC(=O)[C@H](CC(C)C)NC(=O)[C@H](CC(=O)O)NC(=O)[C@H](CO)NC(=O)[C@@H](NC(=O)[C@H](Cc1ccccc1)NC(=O)[C@@H](NC(=O)CNC(=O)[C@H](CCC(=O)O)NC(=O)C(C)(C)NC(=O)[C@@H](N)Cc1ccc(O)cc1)[C@@H](C)O)[C@@H](C)O)[C@@H](C)CC)C(=O)N[C@@H](CCC(=O)O)C(=O)N[C@@H](CCC(=O)O)C(=O)N[C@@H](CCC(=O)O)C(=O)N[C@@H](C)C(=O)N[C@H](C(=O)N[C@@H](CCCNC(=N)N)C(=O)N[C@@H](CC(C)C)C(=O)N[C@@H](Cc1ccccc1)C(=O)N[C@H](C(=O)N[C@@H](CCC(=O)O)C(=O)N[C@@H](Cc1c[nH]c2ccccc12)C(=O)N[C@@H](CC(C)C)C(=O)N[C@@H](CCCCN)C(=O)NC(C)(C)C(=O)NCC(=O)NCC(=O)N1CCC[C@H]1C(=O)N[C@@H](CO)C(=O)N[C@@H](CO)C(=O)NCC(=O)N[C@@H](C)C(=O)N1CCC[C@H]1C(=O)N1CCC[C@H]1C(=O)N1CCC[C@H]1C(=O)N[C@@H](CO)C(N)=O)[C@@H](C)CC)C(C)C)C(=O)O [SEQ ID NO: 12, Y-Aib-E-G-T-F-T-S-D-L-S-I-Q-K(γE-x70)-E-E-E-A-V-R-L-F-I-E-W-L-K-Aib-G-G-P-S-S-G-A-P-P-P-S-NH2] |  |  |  | EC50 [3]: 95.9 nM; EC50 ([1]; EC50 hGLP-1 R, Table 7): 0.0119 nM |
| H-YAEGTFTSDVSIYLEGQAAKEFIAWLVKGR-NH2 [SEQ ID NO: 7, YAEGTFTSDVSIYLEGQAAKEFIAWLVKGR-NH2, reference compound] |  |  |  | EC50 ([1]; Table 2, read-out: EC50 hGLP-1 R): 0.005 nM; EC50 ([2]; Table 2, cAMP formation, read-out: EC50 hGIP R): 3.66 nM |
| Tyr(1)Ile(12)-GLP1 (peptide) | 5 pM | 3660 pM |  |  |
| B1 | 21.2 pM | 16.8 pM | 200000 pM |  |
| B2 | 12.5 pM | 6.7 pM | > 1e+06 pM |  |
| B3 | 26.7 pM | 14.6 pM | 164000 pM |  |
| B4 | 11.9 pM | 14.6 pM | 95900 pM |  |
| B5 | 9.3 pM | 5.7 pM | 429000 pM |  |
